Assay results: paper PMC12095637
Like-named read-outs stand apart in the source and are kept apart here.

What was measured:
Assay in all cases: SEC-MALS
[1] = target: DdMICU (Dictyostelium discoideum MICU, residues 105–461) (Dictyostelium discoideum)
[2] = target: DdMICU (Dictyostelium discoideum MICU, residues 105–461) (Dictyostelium discoideum); remark: listed apart in the source
[3] = target: DdMICU (Dictyostelium discoideum MICU, residues 105–461) (Dictyostelium discoideum); remark: listed apart in the source

DdMICU (Dictyostelium discoideum MICU, residues 105–461) (domain or fragment)
stoichiometry N [1]: 2
stoichiometry N [2]: 4
stoichiometry N [3]: 2
